Source: IntAct's records for PubMed 20937695

B1: "Na(+)/H(+) exchange regulatory cofactor NHE-RF1" (Homo sapiens), O14745 (parent)
chain: MSADAAAGAPLPRLCCLEKGPNGYGFHLHGEKGKLGQYIRLVEPGSPAEKAGLLAGDRLVEVNGENVEKETHQQVVSRIRAALNAVRLLVVDPETDEQLQKLGVQVREELLRAQEAPGQAEPPAAAEVQGAGNENEPREADKSHPEQRELRPRLCTMKKGPSGYGFNLHSDKSKPGQFIRSVDPDSPAEASGLRAQDRIVEVNGVCMEGKQHGDVVSAIRAGGDETKLLVVDRETDEFFKKCRVIPSQEHLNGPLPVPFTNGEIQKENSREALAEAALESPRPALVRSASSDTSEELNSQDSPPKQDSTAPSSTSSSDPILDFNISLAMAKERAHQKRSSKRAPQMDWSKKNELFSNL
partner: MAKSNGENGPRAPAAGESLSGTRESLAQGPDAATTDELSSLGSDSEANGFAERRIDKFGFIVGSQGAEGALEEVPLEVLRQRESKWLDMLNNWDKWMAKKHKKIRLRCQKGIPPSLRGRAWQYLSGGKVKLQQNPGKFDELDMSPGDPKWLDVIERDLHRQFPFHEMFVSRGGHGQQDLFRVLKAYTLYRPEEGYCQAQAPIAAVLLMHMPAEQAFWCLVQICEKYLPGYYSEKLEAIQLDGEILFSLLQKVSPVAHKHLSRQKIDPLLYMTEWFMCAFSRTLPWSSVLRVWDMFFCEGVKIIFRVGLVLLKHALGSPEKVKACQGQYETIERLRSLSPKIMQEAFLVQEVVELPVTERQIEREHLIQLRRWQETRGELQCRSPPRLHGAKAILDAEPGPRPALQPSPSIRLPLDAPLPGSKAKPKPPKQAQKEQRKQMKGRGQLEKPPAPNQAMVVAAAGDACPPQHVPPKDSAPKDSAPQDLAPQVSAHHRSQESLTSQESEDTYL
B2: "Na(+)/H(+) exchange regulatory cofactor NHE-RF1" (Homo sapiens), O14745 (parent)
chain: B1 chain

Variants of: B1
Conditions: with tb10a_human TBC1D10A

effect of a mutation on the interaction | Variant
with no effect | S162D;S339D;S340D
with no effect | S280A;S302A
with no effect | S162A;S339A;S340A
with no effect | S280D;S302D

Variants of: B2
Conditions: with ezri_human EZR

effect of a mutation on the interaction | Variant
decreasing interaction strength | S162D;S339D;S340D
decreasing interaction strength | S162A;S339A;S340A
decreasing interaction strength | S280A;S302A
decreasing interaction strength | S280D;S302D

Variants of: B2
Conditions: with ezri_human EZR
Remark: another data set of the same source

effect of a mutation on the interaction | Variant
disrupting interaction strength | F355R
with no effect | F355A
decreasing interaction strength | M346A;W348A
